Measured values reported in PMC8317929 (mAbs, 2021).

Legend:
[1] = biological target: SARS-CoV-2 RBD recombinant protein (SARS-CoV-2, Wuhan-Hu-1 (QHD43416.1), UniProt P0DTC2); assay: BLI
[2] = biological target: SARS-CoV RBD recombinant protein (SARS-CoV; strain of construct not …, UniProt Q19QX0); assay: BLI

B1: MW05 (antibody, V domains shown)
VH: EVQLVQSGAEVKKPGSSVKVSCKASGGTFSSYAISWVRQAPGQGLEWMGRIIPIFGSSNYAQKFQGRVTITADESTSTAYMELSSLRSEDTAVYYCAESPLGGGSGYSVSWFDPWGQGTLVTVSS
VL: not shown
binding result [1]: binds

B2: MW06 (antibody, V domains shown)
VH: EVQLLESGGGLVQPGGSLRLSCAASGFTFSSYAMNWVRQAPGKGLEWVSVISGSGGSTYYADSVRGRFTISRDNSKNTLYLQMNSLRAEDTAVYCCAKGYYYDSSGYYFREDAFDIWGQGTLVTVSS
VL: DIQMTQSPSAMSASVGDRVTITCRASQGISNYLAWFQQKPGKVPKRLIYAASSLQSGVPSRFSGSGSGTEFTLTISSLQPEDFATYYCLQHNSYPYTFGQGTKLEIK
Kd [1]: 5.48 nM
Kd [2]: 12.3 nM
